From IntAct's records for PubMed 32296183

B1: Catenin alpha-3 (Homo sapiens), Q9UI47-2 (parent)
chain: MSAETPITLNIDPQDLQVQTFTVEKLLEPLIIQVTTLVNCPQNPSSRKKGRSKRASVLLASVEEATWNLLDKGEKIAQEATVLKDELTASLEEVRKESEALKVSAERFTDDPCFLPKREAVVQAARALLAAVTRLLILADMIDVMCLLQHVSAFQRTFESLKNVANKSDLQKTYQKLGKELENLDYLAFKRQQDLKSPNQRDEIAGARASLKENSPLLHSICSACLEHSDVASLKASKDTVCEEIQNALNVISNASQGIQNMTTPPEPQAATLGSALDELENLIVLNPLTVTEEEIRPSLEKRLEAIISGAALLADSSCTRDLHRERIIAECNAIRQALQDLLSEYMNNAGKKERSNTLNIALDNMCKKTRDLRRQLRKAIIDHVSDSFLDTTVPLLVLIEAAKNGREKEIKEYAAIFHEHTSRLVEVANLACSMSTNEDGIKIVKIAANHLETLCPQIINAALALAARPKSQAVKNTMEMYKRTWENHIHVLTEAVDDITSIDDFLAVSGMFLFF
partner: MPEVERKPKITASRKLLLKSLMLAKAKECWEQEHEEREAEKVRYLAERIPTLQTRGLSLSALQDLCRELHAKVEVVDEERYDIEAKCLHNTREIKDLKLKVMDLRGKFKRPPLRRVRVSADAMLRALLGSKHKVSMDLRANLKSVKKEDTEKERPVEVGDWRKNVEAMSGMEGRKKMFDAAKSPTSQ
B2: Golgi SNAP receptor complex member 2 (Homo sapiens), O14653 (parent)
chain: MDPLFQQTHKQVHEIQSCMGRLETADKQSVHIVENEIQASIDQIFSRLERLEILSSKEPPNKRQNARLRVDQLKYDVQHLQTALRNFQHRRHAREQQERQREELLSRTFTTNDSDTTIPMDESLQFNSSLQKVHNGMDDLILDGHNILDGLRTQRLTLKGTQKKILDIANMLGLSNTVMRLIEKRAFQDKYFMIGGMLLTCVVMFLVVQYLT
partner: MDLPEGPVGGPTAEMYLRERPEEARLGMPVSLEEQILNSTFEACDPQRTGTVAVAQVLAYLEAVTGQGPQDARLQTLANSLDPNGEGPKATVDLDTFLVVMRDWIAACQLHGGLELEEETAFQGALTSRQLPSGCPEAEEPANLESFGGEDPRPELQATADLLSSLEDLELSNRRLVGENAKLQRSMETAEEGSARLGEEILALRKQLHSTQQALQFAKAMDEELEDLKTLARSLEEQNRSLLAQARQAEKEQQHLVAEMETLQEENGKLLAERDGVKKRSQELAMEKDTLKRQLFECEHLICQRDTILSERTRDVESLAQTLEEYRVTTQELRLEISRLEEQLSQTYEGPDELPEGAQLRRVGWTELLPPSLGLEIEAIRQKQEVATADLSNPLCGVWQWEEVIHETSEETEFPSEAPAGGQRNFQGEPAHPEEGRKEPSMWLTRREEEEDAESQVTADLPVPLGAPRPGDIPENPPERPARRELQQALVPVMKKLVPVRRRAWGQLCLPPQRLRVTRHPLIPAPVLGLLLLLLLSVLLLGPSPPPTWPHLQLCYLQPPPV
B3: Catenin alpha-3 (Homo sapiens), Q9UI47-2 (parent)
chain: B1 chain
partner: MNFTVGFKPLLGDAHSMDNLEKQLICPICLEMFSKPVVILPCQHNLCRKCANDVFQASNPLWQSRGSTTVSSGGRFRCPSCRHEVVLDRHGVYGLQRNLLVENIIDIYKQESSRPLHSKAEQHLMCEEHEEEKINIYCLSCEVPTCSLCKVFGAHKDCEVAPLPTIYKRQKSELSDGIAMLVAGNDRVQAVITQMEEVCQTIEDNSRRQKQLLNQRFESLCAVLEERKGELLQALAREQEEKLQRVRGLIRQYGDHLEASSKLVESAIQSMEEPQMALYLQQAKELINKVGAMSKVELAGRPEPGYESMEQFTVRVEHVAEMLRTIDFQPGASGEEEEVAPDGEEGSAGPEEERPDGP
B4: Catenin alpha-3 (Homo sapiens), Q9UI47-2 (parent)
chain: B1 chain
partner: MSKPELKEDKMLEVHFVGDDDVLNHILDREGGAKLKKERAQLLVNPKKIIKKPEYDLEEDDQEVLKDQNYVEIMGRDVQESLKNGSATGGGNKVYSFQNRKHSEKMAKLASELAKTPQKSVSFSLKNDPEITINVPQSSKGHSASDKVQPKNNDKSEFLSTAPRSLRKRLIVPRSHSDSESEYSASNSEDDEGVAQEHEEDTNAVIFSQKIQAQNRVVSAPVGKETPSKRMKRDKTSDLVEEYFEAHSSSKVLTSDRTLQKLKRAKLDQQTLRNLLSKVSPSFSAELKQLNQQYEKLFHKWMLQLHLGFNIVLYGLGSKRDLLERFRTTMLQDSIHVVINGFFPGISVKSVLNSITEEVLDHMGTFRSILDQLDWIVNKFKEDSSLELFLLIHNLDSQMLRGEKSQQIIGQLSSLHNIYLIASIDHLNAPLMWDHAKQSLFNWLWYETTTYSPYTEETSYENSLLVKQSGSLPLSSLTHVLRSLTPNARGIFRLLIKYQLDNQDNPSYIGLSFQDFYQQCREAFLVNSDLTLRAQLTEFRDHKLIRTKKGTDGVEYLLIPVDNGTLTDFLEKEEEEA
B5: Catenin alpha-3 (Homo sapiens), Q9UI47-2 (parent)
chain: B1 chain
partner: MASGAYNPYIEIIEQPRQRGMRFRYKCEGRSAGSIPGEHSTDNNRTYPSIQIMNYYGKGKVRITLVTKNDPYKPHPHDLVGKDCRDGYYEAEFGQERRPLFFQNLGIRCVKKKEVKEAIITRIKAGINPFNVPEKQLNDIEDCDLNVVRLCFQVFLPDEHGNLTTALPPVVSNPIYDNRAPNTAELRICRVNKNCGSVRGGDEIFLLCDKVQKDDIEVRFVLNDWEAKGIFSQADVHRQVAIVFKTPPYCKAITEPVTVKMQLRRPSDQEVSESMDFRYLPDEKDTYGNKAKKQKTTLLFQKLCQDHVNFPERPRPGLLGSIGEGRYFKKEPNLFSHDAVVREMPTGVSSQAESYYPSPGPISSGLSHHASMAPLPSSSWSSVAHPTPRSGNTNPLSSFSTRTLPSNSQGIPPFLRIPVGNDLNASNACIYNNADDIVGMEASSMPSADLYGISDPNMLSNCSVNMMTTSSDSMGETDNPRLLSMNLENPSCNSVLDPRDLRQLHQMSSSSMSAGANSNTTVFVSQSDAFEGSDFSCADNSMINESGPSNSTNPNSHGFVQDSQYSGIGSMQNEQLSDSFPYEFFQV

Variants of: B1
Conditions: with tnni1_human TNNI1, P19237

Variant	effect of a mutation on the interaction
MSAETPITLNIDPQDLQVQTFTVEKLLEPLIIQVTTLVNCPQNPSSRKKGRSKRASVLLASVEEATWNLLDKGEKIAQEATVLKDELTASLEEDRKESEALKVSAERFTDDPCFLPKREAVVQAARALLAAVTRLLILADMIDVMCLLQHVSAFQRTFESLKNVANKSDLQKTYQKLGKELENLDYLAFKRQQDLKSPNQRDEIAGARASLKENSPLLHSICSACLEHSDVASLKASKDTVCEEIQNALNVISNASQGIQNMTTPPEPQAATLGSALDELENLIVLNPLTVTEEEIRPSLEKRLEAIISGAALLADSSCTRDLHRERIIAECNAIRQALQDLLSEYMNNAGKKERSNTLNIALDNMCKKTRDLRRQLRKAIIDHVSDSFLDTTVPLLVLIEAAKNGREKEIKEYAAIFHEHTSRLVEVANLACSMSTNEDGIKIVKIAANHLETLCPQIINAALALAARPKSQAVKNTMEMYKRTWENHIHVLTEAVDDITSIDDFLAVSGMFLFF [V94D]	with no effect

Variants of: B2
Conditions: with kash5_human KASH5, Q8N6L0

Variant	effect of a mutation on the interaction
MDPLFQQTHKQVHEIQSCMGRLETADKQSVHIVENEIQASIDQIFSRLERLEILSSKEPPNKRQNARLRVDQLKYDVQHLQTALRNFQHRRHAREQQERQREELLSRTFTTNDSDTTIPMDESLQFNSSLQKVHNGMDDLILDWHNILDGLRTQRLTLKGTQKKILDIANMLGLSNTVMRLIEKRAFQDKYFMIGGMLLTCVVMFLVVQYLT [G144W]	with no effect

Variants of: B3
Conditions: with tri54_human TRIM54, Q9BYV2

Variant	effect of a mutation on the interaction
MSAETPITLNIDPQDLQVQTFTVEKLLEPLIIQVTTLVNCPQNPSSRKKGRSKRASVLLASVEEATWNLLDKGEKIAQEATVLKDELTASLEEDRKESEALKVSAERFTDDPCFLPKREAVVQAARALLAAVTRLLILADMIDVMCLLQHVSAFQRTFESLKNVANKSDLQKTYQKLGKELENLDYLAFKRQQDLKSPNQRDEIAGARASLKENSPLLHSICSACLEHSDVASLKASKDTVCEEIQNALNVISNASQGIQNMTTPPEPQAATLGSALDELENLIVLNPLTVTEEEIRPSLEKRLEAIISGAALLADSSCTRDLHRERIIAECNAIRQALQDLLSEYMNNAGKKERSNTLNIALDNMCKKTRDLRRQLRKAIIDHVSDSFLDTTVPLLVLIEAAKNGREKEIKEYAAIFHEHTSRLVEVANLACSMSTNEDGIKIVKIAANHLETLCPQIINAALALAARPKSQAVKNTMEMYKRTWENHIHVLTEAVDDITSIDDFLAVSGMFLFF [V94D]	disrupting interaction strength

Variants of: B4
Conditions: with orc2_human ORC2, Q13416

Variant	effect of a mutation on the interaction
MSAETPITLNIDPQDLQVQTFTVEKLLEPLIIQVTTLVNCPQNPSSRKKGRSKRASVLLASVEEATWNLLDKGEKIAQEATVLKDELTASLEEDRKESEALKVSAERFTDDPCFLPKREAVVQAARALLAAVTRLLILADMIDVMCLLQHVSAFQRTFESLKNVANKSDLQKTYQKLGKELENLDYLAFKRQQDLKSPNQRDEIAGARASLKENSPLLHSICSACLEHSDVASLKASKDTVCEEIQNALNVISNASQGIQNMTTPPEPQAATLGSALDELENLIVLNPLTVTEEEIRPSLEKRLEAIISGAALLADSSCTRDLHRERIIAECNAIRQALQDLLSEYMNNAGKKERSNTLNIALDNMCKKTRDLRRQLRKAIIDHVSDSFLDTTVPLLVLIEAAKNGREKEIKEYAAIFHEHTSRLVEVANLACSMSTNEDGIKIVKIAANHLETLCPQIINAALALAARPKSQAVKNTMEMYKRTWENHIHVLTEAVDDITSIDDFLAVSGMFLFF [V94D]	disrupting interaction strength

Variants of: B5
Conditions: with REL

Variant	effect of a mutation on the interaction
MSAETPITLNIDPQDLQVQTFTVEKLLEPLIIQVTTLVNCPQNPSSRKKGRSKRASVLLASVEEATWNLLDKGEKIAQEATVLKDELTASLEEDRKESEALKVSAERFTDDPCFLPKREAVVQAARALLAAVTRLLILADMIDVMCLLQHVSAFQRTFESLKNVANKSDLQKTYQKLGKELENLDYLAFKRQQDLKSPNQRDEIAGARASLKENSPLLHSICSACLEHSDVASLKASKDTVCEEIQNALNVISNASQGIQNMTTPPEPQAATLGSALDELENLIVLNPLTVTEEEIRPSLEKRLEAIISGAALLADSSCTRDLHRERIIAECNAIRQALQDLLSEYMNNAGKKERSNTLNIALDNMCKKTRDLRRQLRKAIIDHVSDSFLDTTVPLLVLIEAAKNGREKEIKEYAAIFHEHTSRLVEVANLACSMSTNEDGIKIVKIAANHLETLCPQIINAALALAARPKSQAVKNTMEMYKRTWENHIHVLTEAVDDITSIDDFLAVSGMFLFF [V94D]	with no effect
